How the values were obtained:
Experiment in all cases: cell-based or functional assay
[1] = target: HIV-1 Env of pseudovirus 0815.v3.c3 (HIV-1)
[2] = target: HIV-1 Env of pseudovirus 191084 B7-19 (HIV-1)
[3] = target: HIV-1 Env of pseudovirus 235-47 (HIV-1)
[4] = target: HIV-1 Env of pseudovirus 3103.v3.c10 (HIV-1)
[5] = target: HIV-1 Env of pseudovirus 3301.v1.c24 (HIV-1)
[6] = target: HIV-1 Env of pseudovirus 3817.v2.c59 (HIV-1)
[7] = target: HIV-1 Env of pseudovirus 620345.c01 (HIV-1)
[8] = target: HIV-1 Env of pseudovirus BJOX009000.02.4 (HIV-1)
[9] = target: HIV-1 Env of pseudovirus C1080.c03 (HIV-1)
[10] = target: HIV-1 Env of pseudovirus C3347.c11 (HIV-1)
[11] = target: HIV-1 Env of pseudovirus CNE8 (HIV-1)
[12] = target: HIV-1 Env of pseudovirus R2184.c04 (HIV-1)
[13] = target: HIV-1 Env of pseudovirus R3265.c06 (HIV-1)
[14] = target: HIV-1 Env of pseudovirus T251-18 (HIV-1)
[15] = target: HIV-1 Env of pseudovirus X1193_c1 (HIV-1)
[16] = target: HIV-1 Env of pseudovirus X1254_c3 (HIV-1)
[17] = target: HIV-1 Env of pseudovirus 1054_07_TC4_1499 (HIV-1)
[18] = target: HIV-1 Env of pseudovirus 1056_10_TA11_1826 (HIV-1)
[19] = target: HIV-1 Env of pseudovirus 246F C1G (HIV-1)
[20] = target: HIV-1 Env of pseudovirus 249M B10 (HIV-1)
[21] = target: HIV-1 Env of pseudovirus 62357_14_D3_4589 (HIV-1)
[22] = target: HIV-1 Env of pseudovirus 6535.3 (HIV-1)
[23] = target: HIV-1 Env of pseudovirus 7030102001E5(Rev-) (HIV-1)
[24] = target: HIV-1 Env of pseudovirus CAAN5342.A2 (HIV-1)
[25] = target: HIV-1 Env of pseudovirus CAP210.2.00.E8 (HIV-1)
[26] = target: HIV-1 Env of pseudovirus CNE58 (HIV-1)
[27] = target: HIV-1 Env of pseudovirus Ce0393_C3 (HIV-1)
[28] = target: HIV-1 Env of pseudovirus Ce0682_E4 (HIV-1)
[29] = target: HIV-1 Env of pseudovirus Ce703010054_2A2 (HIV-1)
[30] = target: HIV-1 Env of pseudovirus Ce704809221_1B3 (HIV-1)
[31] = target: HIV-1 Env of pseudovirus Du172.17 (HIV-1)
[32] = target: HIV-1 Env of pseudovirus HIV-001428-2.42 (HIV-1)
[33] = target: HIV-1 Env of pseudovirus HIV-16055-2.3 (HIV-1)
[34] = target: HIV-1 Env of pseudovirus Q259.d2.17 (HIV-1)
[35] = target: HIV-1 Env of pseudovirus Q842.d12 (HIV-1)
[36] = target: HIV-1 Env of pseudovirus REJO4541.67 (HIV-1)
[37] = target: HIV-1 Env of pseudovirus ZM233M.PB6 (HIV-1)

N49P11 (antibody)
IC50 [1]: 0.106 µg/mL | IC80 [1]: 0.372 µg/mL | MPI [1]: 100 | IC50 [2]: 0.065 µg/mL | IC80 [2]: 0.276 µg/mL | MPI [2]: 100 | IC50 [3]: 3.88 µg/mL | IC80 [3]: 21.2 µg/mL | MPI [3]: 100 | IC50 [4]: 12.6 µg/mL | IC80 [4]: 26.4 µg/mL | MPI [4]: 100 | IC50 [5]: 1.98 µg/mL | IC80 [5]: 15.7 µg/mL | MPI [5]: 100 | IC50 [6]: 4.72 µg/mL | IC80 [6]: 15.9 µg/mL | MPI [6]: 100 | IC50 [7]: 11.7 µg/mL | IC80 [7]: 27.9 µg/mL | MPI [7]: 100 | IC50 [8]: 2.84 µg/mL | IC80 [8]: 10.6 µg/mL | MPI [8]: 100 | IC50 [9]: 0.162 µg/mL | IC80 [9]: 1.45 µg/mL | MPI [9]: 100 | IC50 [10]: 0.055 µg/mL | IC80 [10]: 0.192 µg/mL | MPI [10]: 100 | IC50 [11]: 0.165 µg/mL | IC80 [11]: 1.24 µg/mL | MPI [11]: 100 | IC50 [12]: 0.034 µg/mL | IC80 [12]: 0.12 µg/mL | MPI [12]: 100 | IC50 [13]: 0.161 µg/mL | IC80 [13]: 0.971 µg/mL | MPI [13]: 100 | IC50 [14]: 3.05 µg/mL | IC80 [14]: 16.7 µg/mL | MPI [14]: 100 | IC50 [15]: 0.179 µg/mL | IC80 [15]: 1.09 µg/mL | MPI [15]: 100 | IC50 [16]: 5.99 µg/mL | IC80 [16]: 20.7 µg/mL | MPI [16]: 100

VRC07 (antibody)
IC50, titer in TZM.bl cells [1]: 0.015 µg/mL | IC80, titer in TZM.bl cells [1]: 0.051 µg/mL | neutralization IC50 [17]: 0.239 µg/mL | neutralization IC80 [17]: 1.46 µg/mL | neutralization IC50 [18]: 0.239 µg/mL | neutralization IC80 [18]: 1.11 µg/mL | neutralization IC50 [2]: 0.061 µg/mL | neutralization IC80 [2]: 0.209 µg/mL | IC50, titer in TZM.bl cells [3]: 0.024 µg/mL | IC80, titer in TZM.bl cells [3]: 0.075 µg/mL | neutralization IC50 [19]: 0.286 µg/mL | neutralization IC80 [19]: 1.04 µg/mL | neutralization IC50 [20]: 0.052 µg/mL | neutralization IC80 [20]: 0.204 µg/mL | IC50, titer in TZM.bl cells [4]: 0.675 µg/mL | IC80, titer in TZM.bl cells [4]: 1.95 µg/mL | IC50, titer in TZM.bl cells [5]: 0.027 µg/mL | IC80, titer in TZM.bl cells [5]: 0.073 µg/mL | IC50, titer in TZM.bl cells [6]: 1.9 µg/mL | IC80, titer in TZM.bl cells [6]: 19.8 µg/mL | IC50, titer in TZM.bl cells [7]: > 50 µg/mL | IC80, titer in TZM.bl cells [7]: > 50 µg/mL | neutralization IC50 [21]: 0.075 µg/mL | neutralization IC80 [21]: 0.256 µg/mL | neutralization IC50 [22]: 0.169 µg/mL | neutralization IC80 [22]: 0.517 µg/mL | neutralization IC50 [23]: 0.205 µg/mL | neutralization IC80 [23]: 0.911 µg/mL | IC50, titer in TZM.bl cells [8]: 0.806 µg/mL | IC80, titer in TZM.bl cells [8]: 2.9 µg/mL | IC50, titer in TZM.bl cells [9]: 2.03 µg/mL | IC80, titer in TZM.bl cells [9]: 8.25 µg/mL | IC50, titer in TZM.bl cells [10]: 0.06 µg/mL | IC80, titer in TZM.bl cells [10]: 0.38 µg/mL | neutralization IC50 [24]: 0.307 µg/mL | neutralization IC80 [24]: 1.05 µg/mL | neutralization IC50 [25]: > 50 µg/mL | neutralization IC80 [25]: > 50 µg/mL | neutralization IC50 [26]: 0.11 µg/mL | neutralization IC80 [26]: 0.298 µg/mL | IC50, titer in TZM.bl cells [11]: 0.45 µg/mL | IC80, titer in TZM.bl cells [11]: 1.56 µg/mL | neutralization IC50 [27]: 0.182 µg/mL | neutralization IC80 [27]: 0.634 µg/mL | neutralization IC50 [28]: 0.039 µg/mL | neutralization IC80 [28]: 0.239 µg/mL | neutralization IC50 [29]: 0.19 µg/mL | neutralization IC80 [29]: 0.912 µg/mL | neutralization IC50 [30]: 0.273 µg/mL | neutralization IC80 [30]: 1.14 µg/mL | neutralization IC50 [31]: 0.796 µg/mL | neutralization IC80 [31]: 3.66 µg/mL | neutralization IC50 [32]: 0.004 µg/mL | neutralization IC80 [32]: 0.016 µg/mL | neutralization IC50 [33]: 0.025 µg/mL | neutralization IC80 [33]: 0.135 µg/mL | neutralization IC50 [34]: 0.024 µg/mL | neutralization IC80 [34]: 0.1 µg/mL | neutralization IC50 [35]: 0.015 µg/mL | neutralization IC80 [35]: 0.051 µg/mL | IC50, titer in TZM.bl cells [12]: 0.02 µg/mL | IC80, titer in TZM.bl cells [12]: 0.104 µg/mL | neutralization IC50 [36]: 0.011 µg/mL | neutralization IC80 [36]: 0.037 µg/mL | IC50, titer in TZM.bl cells [14]: 1.32 µg/mL | IC80, titer in TZM.bl cells [14]: 6.49 µg/mL | IC50, titer in TZM.bl cells [15]: 0.037 µg/mL | IC80, titer in TZM.bl cells [15]: 0.249 µg/mL | IC50, titer in TZM.bl cells [16]: 0.041 µg/mL | IC80, titer in TZM.bl cells [16]: 0.2 µg/mL | neutralization IC50 [37]: 0.152 µg/mL | neutralization IC80 [37]: 0.625 µg/mL
